Among the data in patent US20240261333A1, “NOVEL TARGETS FOR ENHANCING ANTI-TUMOR IMMUNITY” (THE BROAD INSTITUTE, INC., priority 2021, published 2024) are co-IP/MS count and co-IP mass spectrometry count values, retold here.

One experiment deals with ALDOA (UniProt P04075). The experiment is described as follows: co-IP, anti-FLAG, lysate of N-FLAG B3GNT2 cells, mass spectrometry.
Another experiment concerns the target CALM2 (UniProt P0DP24). The experiment is described as above.
Another experiment has as its target CNP (UniProt P09543). The experiment is described as above.
In the next experiment the target is HSPA5 (UniProt P11021). Described as above.
The target in another experiment is HSPH1 (UniProt Q92598). The experiment is described as above.
The target of the next experiment is LOXL4 (UniProt Q96JB6). The description is as above.
LOXL4, sequence (Q96JB6 25-756 limits assumed): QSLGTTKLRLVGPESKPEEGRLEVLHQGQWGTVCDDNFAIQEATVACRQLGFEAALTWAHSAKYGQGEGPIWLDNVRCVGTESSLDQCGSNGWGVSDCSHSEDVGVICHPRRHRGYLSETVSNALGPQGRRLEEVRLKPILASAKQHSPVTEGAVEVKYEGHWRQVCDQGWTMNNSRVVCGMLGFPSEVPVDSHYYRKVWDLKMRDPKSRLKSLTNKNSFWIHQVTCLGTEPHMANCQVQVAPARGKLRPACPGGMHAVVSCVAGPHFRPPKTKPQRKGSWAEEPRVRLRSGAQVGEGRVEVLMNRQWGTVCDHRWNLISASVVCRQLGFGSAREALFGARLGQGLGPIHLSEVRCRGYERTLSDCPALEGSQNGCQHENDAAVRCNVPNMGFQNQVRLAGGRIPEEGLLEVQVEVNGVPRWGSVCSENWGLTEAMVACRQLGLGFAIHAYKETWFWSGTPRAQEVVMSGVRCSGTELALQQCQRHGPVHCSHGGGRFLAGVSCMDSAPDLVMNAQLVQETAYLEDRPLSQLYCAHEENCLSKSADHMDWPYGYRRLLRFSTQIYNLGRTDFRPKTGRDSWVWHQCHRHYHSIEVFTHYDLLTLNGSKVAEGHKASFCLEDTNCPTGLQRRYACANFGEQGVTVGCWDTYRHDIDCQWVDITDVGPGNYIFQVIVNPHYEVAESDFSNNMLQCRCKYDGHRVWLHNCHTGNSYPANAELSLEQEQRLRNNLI
The next experiment deals with LRPPRC (UniProt P42704). The experiment is described as above.
For another experiment, the target named is OS9 (UniProt Q13438). Described as above.
OS9, sequence (Q13438 other isoform, or with tags, fused parts or gaps limits assumed): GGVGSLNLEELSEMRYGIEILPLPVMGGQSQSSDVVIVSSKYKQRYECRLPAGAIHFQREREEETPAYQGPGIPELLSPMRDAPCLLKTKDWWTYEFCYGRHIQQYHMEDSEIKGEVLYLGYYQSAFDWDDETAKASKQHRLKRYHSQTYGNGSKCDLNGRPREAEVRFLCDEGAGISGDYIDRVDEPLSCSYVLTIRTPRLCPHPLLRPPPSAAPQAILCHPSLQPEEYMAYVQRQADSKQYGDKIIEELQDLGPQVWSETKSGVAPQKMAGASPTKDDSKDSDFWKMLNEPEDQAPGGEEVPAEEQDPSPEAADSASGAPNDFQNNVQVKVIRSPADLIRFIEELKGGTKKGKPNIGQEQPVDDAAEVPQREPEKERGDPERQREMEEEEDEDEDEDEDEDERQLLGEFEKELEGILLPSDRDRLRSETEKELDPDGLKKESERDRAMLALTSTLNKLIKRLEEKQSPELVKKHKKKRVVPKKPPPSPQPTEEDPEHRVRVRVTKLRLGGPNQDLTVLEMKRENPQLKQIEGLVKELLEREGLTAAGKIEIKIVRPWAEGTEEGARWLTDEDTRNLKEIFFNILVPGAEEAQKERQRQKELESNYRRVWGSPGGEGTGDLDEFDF
The next experiment addresses PSMA1 (UniProt P25786). The description is as above.
A further experiment has as its target PSMA4 (UniProt P25789). The experiment is described as above.
The target in another experiment is RPL18A (UniProt Q02543). The experiment is described as above.
The target of the next experiment is RPL29 (UniProt P47914). Described as above.
Another experiment deals with SEC16A (UniProt O15027). The description is as above.
For a further experiment, the target named is SERPINE2 (UniProt P07093). The experiment is described as above.
The target of the next experiment is SLC25A10 (UniProt Q9UBX3). Described as above.
A further experiment addresses SLC25A3 (UniProt Q00325). The experiment is described as above.
The next experiment has as its target SMN1 (UniProt Q16637). The description is as above.
The target in a further experiment is SRSF7 (UniProt Q16629). Described as above.
SRSF7, sequence (Q16629 whole entry): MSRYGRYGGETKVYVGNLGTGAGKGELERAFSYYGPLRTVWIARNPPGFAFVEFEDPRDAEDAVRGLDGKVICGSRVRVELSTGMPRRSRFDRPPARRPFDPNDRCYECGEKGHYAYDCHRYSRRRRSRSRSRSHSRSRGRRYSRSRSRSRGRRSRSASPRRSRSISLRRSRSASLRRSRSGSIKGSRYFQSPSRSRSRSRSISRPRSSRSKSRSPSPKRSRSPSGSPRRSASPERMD
The target in the next experiment is TRIM28 (UniProt Q13263). Described as above.
TRIM28, sequence (Q13263 2-835 limits assumed): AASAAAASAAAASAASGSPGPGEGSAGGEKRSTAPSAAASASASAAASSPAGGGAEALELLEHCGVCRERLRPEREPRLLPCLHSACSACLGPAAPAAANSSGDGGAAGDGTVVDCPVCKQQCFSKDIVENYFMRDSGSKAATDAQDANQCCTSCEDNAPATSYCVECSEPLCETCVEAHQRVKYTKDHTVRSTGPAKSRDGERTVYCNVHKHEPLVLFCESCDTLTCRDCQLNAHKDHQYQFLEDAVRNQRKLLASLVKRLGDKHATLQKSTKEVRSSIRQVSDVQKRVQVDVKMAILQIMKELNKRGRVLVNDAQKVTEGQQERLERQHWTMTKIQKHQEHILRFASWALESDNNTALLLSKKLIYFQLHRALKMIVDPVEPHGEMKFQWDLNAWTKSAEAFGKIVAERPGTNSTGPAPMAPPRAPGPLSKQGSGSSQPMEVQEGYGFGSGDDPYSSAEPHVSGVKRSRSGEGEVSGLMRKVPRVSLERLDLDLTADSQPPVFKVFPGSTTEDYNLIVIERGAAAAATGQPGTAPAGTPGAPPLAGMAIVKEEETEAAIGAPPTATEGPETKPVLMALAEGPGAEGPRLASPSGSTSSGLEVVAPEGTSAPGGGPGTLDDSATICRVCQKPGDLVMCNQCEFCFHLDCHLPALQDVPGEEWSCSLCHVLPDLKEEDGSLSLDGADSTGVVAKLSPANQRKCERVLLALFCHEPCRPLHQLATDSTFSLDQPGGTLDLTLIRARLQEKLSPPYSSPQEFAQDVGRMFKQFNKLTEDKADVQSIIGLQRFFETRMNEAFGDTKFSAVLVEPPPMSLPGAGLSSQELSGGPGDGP
For a further experiment, the target named is CALU (human) (UniProt O43852). The experiment is described as follows: co-IP/MS, IgG control IP of C-FLAG B3GNT2 cell lysate.
CALU (human), sequence (O43852 20-315 limits assumed): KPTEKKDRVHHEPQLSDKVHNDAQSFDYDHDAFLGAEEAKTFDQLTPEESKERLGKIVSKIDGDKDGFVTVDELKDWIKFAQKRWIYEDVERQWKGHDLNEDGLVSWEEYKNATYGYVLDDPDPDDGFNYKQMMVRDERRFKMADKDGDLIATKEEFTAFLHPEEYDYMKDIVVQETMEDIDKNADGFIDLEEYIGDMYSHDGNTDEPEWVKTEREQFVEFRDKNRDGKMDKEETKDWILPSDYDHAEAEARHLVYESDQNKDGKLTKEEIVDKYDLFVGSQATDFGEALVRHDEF
Another experiment concerns the target CASP14 (human) (UniProt P31944). The description is as above.
The next experiment concerns the target CKAP4 (human) (UniProt Q07065). The description is as above.
Another experiment concerns the target DNAJA1 (human) (UniProt P31689). The description is as above.
A further experiment concerns the target ERLIN1 (human) (UniProt O75477). The experiment is described as above.
The next experiment addresses FAM3C (human) (UniProt Q92520). The description is as above.
A further experiment has as its target IPO4 (human) (UniProt Q8TEX9). The description is as above.
The next experiment addresses LRP1 (human) (UniProt Q07954). The experiment is described as above.
For the next experiment, the target named is PDIA6 (human) (UniProt Q15084). The experiment is described as above.
For a further experiment, the target named is PRDX1 (human) (UniProt Q06830). The description is as above.
PRDX1 (human), sequence (Q06830 2-199 limits assumed): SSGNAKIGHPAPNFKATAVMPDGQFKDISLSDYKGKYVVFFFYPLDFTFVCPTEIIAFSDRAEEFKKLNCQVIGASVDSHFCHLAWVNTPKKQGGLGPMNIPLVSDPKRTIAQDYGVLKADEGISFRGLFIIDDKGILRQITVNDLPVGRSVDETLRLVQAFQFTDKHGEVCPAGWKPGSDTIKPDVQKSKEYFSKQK
The next experiment deals with PRDX2 (human) (UniProt P32119). Described as above.
The target of a further experiment is RPL12 (human) (UniProt P30050). Described as above.
The next experiment has as its target RPL13A (human) (UniProt P40429). The experiment is described as above.
Another experiment deals with RPL14 (human) (UniProt P50914). The description is as above.
Another experiment deals with RPL23A (human) (UniProt P62750). The experiment is described as above.
The target in a further experiment is RPL30 (human) (UniProt P62888). Described as above.
Another experiment deals with RPS12 (human) (UniProt P25398). The experiment is described as above.
In a further experiment the target is RPS7 (human) (UniProt P62081). The description is as above.
In the next experiment the target is TUBB (human) (UniProt P07437). The description is as above.
TUBB (human), sequence (P07437 whole entry): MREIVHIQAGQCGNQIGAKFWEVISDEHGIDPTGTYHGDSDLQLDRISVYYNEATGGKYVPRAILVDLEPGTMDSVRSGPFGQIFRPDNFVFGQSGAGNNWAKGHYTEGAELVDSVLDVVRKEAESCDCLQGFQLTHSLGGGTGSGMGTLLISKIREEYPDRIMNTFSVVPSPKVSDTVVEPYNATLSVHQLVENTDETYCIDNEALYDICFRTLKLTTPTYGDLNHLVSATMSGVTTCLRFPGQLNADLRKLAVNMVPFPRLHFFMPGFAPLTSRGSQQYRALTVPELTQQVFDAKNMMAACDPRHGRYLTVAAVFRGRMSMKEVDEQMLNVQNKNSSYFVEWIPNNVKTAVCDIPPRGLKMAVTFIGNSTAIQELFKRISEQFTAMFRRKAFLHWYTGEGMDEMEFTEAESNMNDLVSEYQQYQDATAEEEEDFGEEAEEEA
A further experiment concerns the target UQCRC2 (human) (UniProt P22695). Described as above.

CNP, sequence (P09543 21-418 limits assumed): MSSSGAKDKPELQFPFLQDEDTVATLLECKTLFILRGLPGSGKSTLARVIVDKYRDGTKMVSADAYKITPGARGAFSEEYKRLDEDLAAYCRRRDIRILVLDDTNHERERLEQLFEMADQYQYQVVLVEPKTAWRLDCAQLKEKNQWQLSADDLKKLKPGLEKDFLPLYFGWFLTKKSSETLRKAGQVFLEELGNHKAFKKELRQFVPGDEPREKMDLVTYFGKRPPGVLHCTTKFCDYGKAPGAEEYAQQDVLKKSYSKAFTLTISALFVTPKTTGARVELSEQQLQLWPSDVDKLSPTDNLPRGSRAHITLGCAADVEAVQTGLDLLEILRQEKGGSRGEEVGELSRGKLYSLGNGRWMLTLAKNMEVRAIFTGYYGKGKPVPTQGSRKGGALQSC
UQCRC2 (human), sequence (P22695 15-453 limits assumed): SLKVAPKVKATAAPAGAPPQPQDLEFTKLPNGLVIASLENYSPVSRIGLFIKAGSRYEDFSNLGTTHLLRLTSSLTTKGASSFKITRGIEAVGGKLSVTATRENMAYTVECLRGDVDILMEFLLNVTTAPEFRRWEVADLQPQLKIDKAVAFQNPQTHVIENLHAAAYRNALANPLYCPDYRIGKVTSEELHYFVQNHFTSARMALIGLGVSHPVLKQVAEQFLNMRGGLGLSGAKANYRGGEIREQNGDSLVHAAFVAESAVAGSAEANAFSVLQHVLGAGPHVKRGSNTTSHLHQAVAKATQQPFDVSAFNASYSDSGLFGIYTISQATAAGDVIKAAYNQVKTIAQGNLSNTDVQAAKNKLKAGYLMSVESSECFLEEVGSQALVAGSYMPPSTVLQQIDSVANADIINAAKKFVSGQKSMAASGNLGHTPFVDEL
SMN1, sequence (Q16637 other isoform, or with tags, fused parts or gaps limits assumed): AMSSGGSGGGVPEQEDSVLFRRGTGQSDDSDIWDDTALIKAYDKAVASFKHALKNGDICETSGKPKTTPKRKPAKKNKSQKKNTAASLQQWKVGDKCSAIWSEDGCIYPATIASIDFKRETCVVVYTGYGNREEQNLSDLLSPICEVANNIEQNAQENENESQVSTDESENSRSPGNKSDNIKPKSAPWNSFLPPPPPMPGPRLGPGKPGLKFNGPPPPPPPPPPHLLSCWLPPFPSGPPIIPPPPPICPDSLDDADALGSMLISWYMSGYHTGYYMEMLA
ERLIN1 (human), sequence (O75477 whole entry): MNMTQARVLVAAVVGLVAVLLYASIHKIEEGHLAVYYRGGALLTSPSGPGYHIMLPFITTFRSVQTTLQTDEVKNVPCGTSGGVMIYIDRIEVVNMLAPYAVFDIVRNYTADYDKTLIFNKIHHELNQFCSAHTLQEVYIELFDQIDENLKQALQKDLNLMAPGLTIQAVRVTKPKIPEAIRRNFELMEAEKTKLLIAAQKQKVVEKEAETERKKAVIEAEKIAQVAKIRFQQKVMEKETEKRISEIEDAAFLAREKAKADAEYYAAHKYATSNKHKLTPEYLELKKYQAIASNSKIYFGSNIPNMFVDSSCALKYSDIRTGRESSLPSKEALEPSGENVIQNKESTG

In the case of “N-terminal FLAG tagged B3GNT2 (from UniProt Q9NY97 1-397) (enzyme)”, the co-IP/MS count in the experiment with ALDOA was 2; in the experiment with CALM2 it was 0; in the experiment with CNP, 5; in the experiment with HSPA5 it was 70; with HSPH1 it was 8; with LOXL4, 5. Further, the co-IP/MS count stood at 2 in the experiment with LRPPRC; 3 with OS9; 2 with PSMA1; 2 in the experiment with PSMA4; 3 in the experiment with RPL18A; 4 with RPL29. The co-IP/MS count in the experiment with SEC16A was found to be 2; with SERPINE2, 4; with SLC25A10, 5; with SLC25A3 it was 4; with SMN1 it was 10; with SRSF7, 2. In the experiment with TRIM28, the co-IP/MS count is 4.
As for “IgG control (Millipore Sigma 12-371) (antibody)”, the co-IP mass spectrometry count with CALU (human) was 0; in the experiment with CASP14 (human) it was 4; in the experiment with CKAP4 (human), 0; with DNAJA1 (human), 0; with ERLIN1 (human) it was 0; with FAM3C (human), 0. The co-IP mass spectrometry count with IPO4 (human) came to 0; with LRP1 (human), 0; with PDIA6 (human), 0; with PRDX1 (human) it was 0; in the experiment with PRDX2 (human), 0; with RPL12 (human), 5. Moreover, the co-IP mass spectrometry count was 0 with RPL13A (human); 8 in the experiment with RPL14 (human); 4 with RPL23A (human); 4 in the experiment with RPL30 (human); 4 with RPS12 (human); 5 in the experiment with RPS7 (human). Besides, the results for the co-IP mass spectrometry count with TUBB (human) and with UQCRC2 (human) were 10 and 0, respectively.
